Data taken from patent US20120213781A1.
Blank lines part the entries; values can stand above or below the binder they belong to. Bridges are numbered along the chain shown (N, C = ends). Where no end group is shown, it is not given here.

Target: recombinant human angiopoietin-2 (rhAng2) (human) (UniProt O15123)
Assay: direct ELISA on rhAng2-coated wells, detection by HRP-anti-His tag antibody, OD450

UniProt O15123, sequence (O15123 19-496 limits assumed): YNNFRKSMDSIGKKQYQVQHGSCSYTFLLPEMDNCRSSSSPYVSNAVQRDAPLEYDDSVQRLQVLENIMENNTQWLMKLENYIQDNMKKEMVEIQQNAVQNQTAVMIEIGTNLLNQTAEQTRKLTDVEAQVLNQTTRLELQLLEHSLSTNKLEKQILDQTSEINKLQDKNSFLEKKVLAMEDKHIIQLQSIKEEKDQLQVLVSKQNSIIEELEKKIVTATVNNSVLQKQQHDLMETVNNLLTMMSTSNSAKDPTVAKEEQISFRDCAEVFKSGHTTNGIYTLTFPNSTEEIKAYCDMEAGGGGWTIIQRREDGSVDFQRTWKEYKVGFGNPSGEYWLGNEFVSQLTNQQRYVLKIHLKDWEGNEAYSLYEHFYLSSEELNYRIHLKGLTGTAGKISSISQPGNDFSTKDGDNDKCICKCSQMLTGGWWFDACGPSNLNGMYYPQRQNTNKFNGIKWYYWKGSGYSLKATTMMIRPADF

EC50 (read off the curve): 9 nM
B1: Construct 13 (designed binder, not shown: small tags and cut ends)
chain: LWDDCYSFPNPPHCYNSP
modifications: disulfide 5-14 (inferred); not fully specified (N-terminus, C-terminus); also: ELP-MRD fusion, type and number of ELP repeats not given here

EC50 (read off the curve): 9 nM
B2: Construct 12 (designed binder, not shown: small tags and cut ends)
chain: LWDDCYSFPNPPHCYNSP
modifications: disulfide 5-14 (inferred); not fully specified (N-terminus, C-terminus); also: ELP-MRD fusion, type and number of ELP repeats not given here
